This note sets out measurements from patent US20090297524A1 (DOMANTIS, published 2009).

This test has as its target T1, Recombinant human CD40L (human, UniProt P29965 108-261, limits assumed).
T1 construct: also called CD40 ligand
T1 sequence (looked up): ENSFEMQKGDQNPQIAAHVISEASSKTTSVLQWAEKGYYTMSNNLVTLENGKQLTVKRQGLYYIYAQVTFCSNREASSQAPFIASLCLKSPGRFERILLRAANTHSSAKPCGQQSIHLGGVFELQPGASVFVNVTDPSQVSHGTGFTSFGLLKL
The test is described as follows: CD40L/CD40-Fc receptor binding assay.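 Further: plate assay with coated human CD40-Fc, bound ligand detected via HRP anti-biotin antibody and TMB, OD at 450 nm, lower signal indicates stronger inhibition by dAb.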

Positions count from the first letter of the chain named.

B1: DOM.162 (other)
VL: DIQMTQSPSSLSASVGDRVTITCRASQDISDDLEWYQQKPGKAPKLLIYNSSFLQSGVPSRFSGSGSGADFTLTISSLQPEDFATYYCQQYHSLPVTFGQGTKVEIKR
notes: Vk dAb
Take B1: the binding result was “binds”.

B2: DOM.164 (other)
VL: B1 VL with D28S, S30D, D31T, N50D, S51G, F53W, A69T, H92R, S93W, L94I
notes: Vk dAb
In the case of B2, the binding result is reported as “binds”.

B3: DOM.163 (other)
VL: B1 VL with S30E, D31G, D32N, N50D, F53Q, A69T, S93H, V96T
notes: Vk dAb
Consider B3, for which the binding result is reported as “binds”.

B4: DOM.175 (other)
VL: DIQMTQSPSSLSASVGDRVTITCRASQPISGGLRWYQQKPGKAPKLLIYSTSMLQSGVPSRFSGSGSGTDFTLTISSLQPEDFATYYCQQLYSAPYTFGQGTKVEIKR
notes: Vk dAb
Regarding B4, the binding result was “binds”.

B5: DOM.92 (other)
VH: EVQLLESGGGLVQPGGSLRLSCAASGFTFVDYPMGWVRQAPGKGLEWVSTISTGGFSTYYADSVKGRFTISRDNSKNTLYLQMNSLRAEDTAVYYCAKARYYYLSQIKNFDYWGQGTLVTVSS
notes: VH dAb
Turning to B5, the binding result is “binds”.

B6: DOM.95 (other)
VH: EVQLLESGGGLVQPGGSLRLSCAASGFTFREYDMLWVRQAPGKGLEWVSTIVGDGNGTYYADSVKGRFTISRDNSKNTLYLQMNSLRAEDTAVYYCAKQDRQFDYWGQGTLVTVSS
notes: VH dAb
With B6, the binding result is listed as “binds”.

B7: DOM-11 (other)
VH: EVQLLESGGGLVQPGGSLRLSCAASGFTFGDYEMSWVRQAPGKGLEWVSGIDGEGSDTYYADSVKGRFTISRDNSKNTLYLQMNSLRAEDTAVYYCAKPGRSFDYWGQGTLVTVSS
notes: VH dAb
Consider B7, for which the binding result is reported as “binds”.

B8: DOM-14 (other)
VH: EVQLLESGGGLVQPGGSLRLSCAASGFTFWSYDMTWVRQAPGKGLEWVSSIMASGDDTYYADSVKGRFTISRDNSKNTLYLQMNSLRAEDTAVYYCAKWDRDFDYWGQGTLVTVSS
notes: VH dAb
Regarding B8, the binding result is on record as “binds”.

B9: DOM-28 (other)
VH: B6 VH with R30G, E31H, L35A, V52S, G53D, D54N, Q99P, D100G, Q102D
notes: VH dAb
B9: the binding result is listed as “binds”.

B10: DOM-22 (other)
VH: B7 VH with G30H, D31N, G50S, D52S, G53S, E54G, D57S, R101V, S102K
notes: VH dAb
With B10, the binding result is on record as “binds”.

B11: DOM-43 (other)
VH: EVQLLESGGGLVQPGGSLRLSCAASGFTFASYEMAWVRQAPGKGLEWVSSIGSDGGPTYYADSVKGRFTISRDNSKNTLYLQMNSLRAEDSAVYYCAKPDRAFDYWGQGTLVTVSS
notes: VH dAb
On to B11, for which the binding result is listed as “binds”.

B12: DOM-66 (other)
VH: B7 VH with G30S, S35L, G50T, D52T, G53S, S56H, D57S, R101T
notes: VH dAb
In the case of B12, the binding result is reported as “binds”.

B13: DOM-80 (other)
VH: B11 VH with A30G, S31R, E33Q, G52S, P57G, S91T, D100S, A102R
notes: VH dAb
Turning to B13, the binding result is given as “binds”.

B14: DOM-25 (other)
VH: B11 VH with A30D, S31N, A35T, S50T, G52T, D54Q, G56T, P57S, S91T, A102S
notes: VH dAb
For the molecule B14, the binding result is given as “binds”.

B15: DOM-67 (other)
VH: B7 VH with G30S, G50T, G53S, E54D, D57F, R101V, S102K
notes: VH dAb
Turning to B15, the binding result is “binds”.

B16: DOM.130 (other)
VH: EVQLLESGGGLVQPGGSLRLSCTASGFTFAGYQMSWVRQAPGKGLEWVSSITNEGVSTYYADSVKGRFTISRDNSKNTLYLQMNSLRAEDTAVYYCAKPGKYFDYWGQGTLVTVSS
notes: VH dAb
On to B16, for which the binding result is “binds”.

B17: DOM-68 (other)
VH: B7 VH with G30K, S35T, G50S, D52S, G53S, E54T, S56Q, D57S, R101N, S102K
notes: VH dAb
For B17, the binding result is on record as “binds”.

B18: DOM-41 (other)
VH: B11 VH with A30F, S31E, A35T, G52A, S53N, G56S, P57T, S91T, A102Q
notes: VH dAb
As to B18, the binding result was “binds”.

B19: DOM-29 (other)
VH: B11 VH with A30G, S31R, E33Q, G52S, P57G, S91T, D100G
notes: VH dAb
Regarding B19, the binding result is recorded as “binds”.

B20: DOM-23 (other)
VH: B7 VH with D31L, S35T, G50S, D52T, E54D, S56I, D57S, K76R, P99A, S102K
notes: VH dAb
For the molecule B20, the binding result is on record as “binds”.

B21: DOM-83 (other)
VH: B11 VH with S31L, E33Q, G52D, D54S, G56S, P57D, S91T, D100E, A102D
notes: VH dAb
Consider B21, for which the binding result is listed as “binds”.

B22: DOM-74 (other)
VH: EVQLLESGGGLVQPGGSLRLSCAASGFTFSDYPMTWVRQAPGKGLEWVSTILSPGTETYYADSVKGRFTISRDNSKNTLYLQMNSLRAEDTAVYYCAKAEKDFDYWGQGTLVTVSS
notes: VH dAb
As for B22, the binding result was “binds”.

B23: DOM-42 (other)
VH: B7 VH with D31P, S35T, G50S, D52V, E54D, S56L, G100D, S102V
notes: VH dAb
With B23, the binding result is recorded as “binds”.

B24: DOM.129 (other)
VH: B11 VH with A30P, S31K, G52D, S53G, G56K, P57S, S91T, R101Q, A102F
notes: VH dAb
Turning to B24, the binding result is listed as “binds”.

B25: DOM-26 (other)
VH: B11 VH with A30R, A35T, G52T, P57T, S91T, R101K, A102T
notes: VH dAb
For the molecule B25, the binding result is “binds”.

B26: DOM-65 (other)
VH: B7 VH with G30N, D31E, S35T, G50T, D52T, G53S, D57G, G100N, R101G, S102K
notes: VH dAb
As to B26, the binding result is “binds”.

B27: DOM.128 (other)
VH: B11 VH with A30E, S31R, E33Q, S50T, G52S, P57G, S91T, D100G, R101T, A102V
notes: VH dAb
In the case of B27, the binding result was “binds”.

B28: DOM-73 (other)
VH: B7 VH with G30S, D31K, E33D, G50T, D52L, G53E, E54D, S56L, D57T, S102L
notes: VH dAb
With B28, the binding result is “binds”.

B29: DOM-78 (other)
VH: B11 VH with A30E, S31R, E33Q, S50T, G52S, P57G, S91T, D100G, R101H, A102R
notes: VH dAb
Take B29: the binding result is “binds”.

B30: DOM-57 (other)
VH: B7 VH with G30S, D31E, E33D, S35Y, G50W, G53T, E54D, S56G, R101L, S102K
notes: VH dAb
For the molecule B30, the binding result is reported as “binds”.

B31: DOM-19 (other)
VH: EVQLLESGGGLVQPGGSLRLSCAASGFPFPQYQMAWVRQAPGKGLEWVSMITSDGLDTYYADSVKGRFTISRDNSKNTLYLQMNSLRAEDTAVYYCAKPEPLFDYWGQGTLVTVSS
notes: VH dAb
With B31, the binding result is “binds”.

B32: DOM-58 (other)
VH: B7 VH with G30E, D31V, E33T, S35A, G50T, G53E, E54S, S56R, R101V, S102W
notes: VH dAb
With B32, the binding result is listed as “binds”.

B33: DOM-84 (other)
VH: EVQLLESGGGLVQPGGSLRLSCAASGFTFRQYQMAWARQAPGKGLEWVSTIASDGVSTYYADSVKGRFTISRDNSKNTLYLQMNSLRAEDTAVYYCAKVGRDFDYWGQGTLVTVSS
notes: VH dAb
Consider B33, for which the binding result is given as “binds”.

B34: DOM.93 (other)
VH: EVQLLESGGGLVQPGGSLRLSCAASGFTFDIYGMTWVRQAPGKGLEWVSSISPLGLVTYYADPVKGRFTISRDNSKNTLYLQMNSLRAEDTAVYYCAKLKEHGDVPFDYWGQGTLVTVSS
notes: VH dAb
B34: the binding result is recorded as “binds”.

B35: DOM.94 (other)
VH: EVQLLESGGGLVQPGGSLRLSCAASGFTFELYPMSWVRQAPGKGLEWVSTISPTGLLTYYADSVKGRFTISRDNSKNTLYLQMNSLRAEDTAVYYCAKFKRSGKTDDTNFDYWGQGTLVTVSS
notes: VH dAb
On to B35, for which the binding result is “binds”.

B36: DOM-15 (other)
VH: EVQLLESGGGLVQPGGSLRLSCAASGFTFEEYVMSWVRQAPGKGLEWVSTISPIGLTTYYADSVKGRFTISRDNSKNTLYLQMNSLRAEDTAVYYCAEFPLIILPDFDYWGQGTLVTVSS
notes: VH dAb
In the case of B36, the binding result was “binds”.

B37: DOM.97 (other)
VH: EVQLLESGGGLVQPGGSLRLSCAASGFTFEEYGMSWVRQAPGKGLEWVSTISPIGVTTYYADSVKGRFTISRDNSKNTLYLQMNSLRAEDTAVYYCAKNAYDRKSNFDYWGQGTLVTVSS
notes: VH dAb
In the case of B37, the binding result was “binds”.

B38: DOM.90 (other)
VL: DIQMTQSPSSLSASVGDRVTITCRASQSISDALFWYQQKPGKAPRLLIYYGSVLQSGVPSRFSGSGSGTDFTLTISSLQPEDFATYYCQQRFQEPVTFGQGTKVEIKR
notes: Vk dAb
For B38, the binding result is reported as “binds”.

B39: DOM.98 (other)
VH: EVQLLESGGGLVQPGGSLRLSCAASGFTFDRYVMVWVRQAPGKDLEWVSGITPSGRRTYYADSVKGRFTISRDNSKDTLYLQMNSLRAEDTAVYYCAKVLGRHFDPLLPSFDYWGQGTLVTVSS
notes: VH dAb
B39: the binding result is “binds”.
